In patent publication US10494439 (dated 2019):

Experiments:
[1] = molecular target: Y436T; assay: SPR
[2] = molecular target: GLD52; assay: SPR

B1: CD52 peptide 741 (peptide)
peptide: GQNDTSQTSSPS
Kd [1]: 1.95 nM | Kd [2]: 2.44 nM
